This note sets out measurements from patent US20180030149A1 (AVEO PHARMACEUTICALS, published 2018).

Experiment [1] deals with T1, recombinant human ErbB3/Fc fusion protein (human, UniProt P21860 20-643).
T1 construct: Bought (R&D Systems, Cat. No. 348-RB); the NRG1-α1 assay names Cat. No. 4518-RB instead; also called rhErbB3-Fc; rhErbB3/Fc; not shown: Fc portion of the bought fusion protein
In words: ECL competition; inhibition of NRG1-β1 binding to plate-coated rhErbB3/Fc. The protocol:
(§1) Multi-array 96-well standard binding plates (Meso Scale Discovery, Cat. No. L15XA-3) were coated with 50 μl of 0.5 μg/mL rhErbB3/Fc (R&D systems, Cat. No. 348-RB) in PBS (Invitrogen, Cat. No. 14040-133) for one hour at room temperature with no agitation. The plates then were washed three times with PBS+0.1% Tween20 (Sigma P5927) and blocked with 200 μl of 100% Horse Serum, heat inactivated (GIBCO, Cat. No. 26050-088) for 1.5 hours at room temperature. After washing the plates three times with PBS+0.1% Tween, 25 μl of the antibody dilutions were added to the plates for another hour at room temperature with agitation. […] The plates then were washed three times with PBS+0.1% Tween, and 150 μl of 1× read buffer (Meso Scale Discovery, Cat. No. R92TC-1) was added to each well before the plates were analyzed on a Sector® Imager 2400 (Meso Scale Discovery) instrument.

The target of experiment [2] is T1, recombinant human ErbB3/Fc fusion …. The experiment can be described thus: ECL (MSD) competition: rhErbB3/Fc coated on the plate, antibody dilutions, then NRG1-β1 at 0.25 µg/ml; bound NRG1-β1 detected.
Experiment [3] has as its target T2, recombinant human ErbB3 monomeric protein (cleaved rhErbB3) (human, UniProt P21860 20-643, limits assumed).
T2 construct: Monomer made by protease cleavage of the Fc fusion; also called Monomeric ErbB3
The experiment can be described thus: SPR Biacore 37 C; purified antibody captured on anti-human Fc, cleaved rhErbB3 0.3125-5.0 nM. The protocol: The analyses were performed at 37° C. using PBS (Invitrogen, Catalog No. 14040-133) containing 0.05% surfactant P20 (Biacore, Catalog No. BR-1000-54) as running buffer.
The antibodies were captured in individual flow cells at a flow rate of […]. Injection time was varied for each antibody to yield an Rₘₐₓ between 30 and 60 RU. […] The dissociation phase was monitored for up to 1200 seconds. The surface was then regenerated with two 60 second injections of Glycine pH 2.25 (made from Glycine pH 2.0 (Biacore, Catalog No. BR-1003-55) and pH 2.5 (Biacore, Catalog No. BR-1003-56)) at […].
The binding affinities and kinetics of certain purified monoclonal antibodies were also determined. To further characterize certain antibodies, the surface plasmon resonance experiments described above were conducted using concentrations of cleaved rhErbB3 between 0.3125 nM and 5.0 nM (a 2-fold serial dilution).
For orientation: SPR reads the build-up and loss of mass on a sensor chip optically.

Experiment [4] has as its target T3, human ErbB3 (human, UniProt P21860 20-1342). In words: cell-based or functional assay.
The target of experiment [5] is T1, recombinant human ErbB3/Fc fusion …. The experiment can be described thus: ECL (MSD) competition: rhErbB3/Fc coated on the plate, antibody dilutions, then NRG1-β1 at 0.25 µg/ml; bound NRG1-β1 detected. On the procedure: as §1
This is another data set of the same source.

In experiment [6] the target is T2, recombinant human ErbB3 monomeric …. In words: SPR Biacore 37 C; antibody captured on anti-human Fc, cleaved rhErbB3 (monomer) injected.
Experiment [7] has as its target T1, recombinant human ErbB3/Fc fusion …. The experiment can be described thus: SPR Biacore T100, 25 C; antibody captured on anti-mouse IgG, rhErbB3-Fc injected. The protocol:
Rabbit anti-mouse IgGs (Biacore, Cat. No. BR-1008-38) were immobilized on carboxymethylated dextran CM4 sensor chips (Biacore, Cat. No. BR-1005-34) by amine coupling (BIAcore, Cat. No. BR-1000-50) using a standard coupling protocol according to vendor's instructions. The analyses were performed at 25° C., using PBS (Invitrogen, Cat. No. 14040-133) containing 0.05% surfactant P20 (Biacore, Cat. No. BR-1000-54) as running buffer.
The antibodies were captured in individual flow cells at a flow rate of 10 μl/minute. Injection time was varied for each antibody to yield an Rₘₐₓ between 30 and 60 RU. […] The dissociation phase was monitored for up to 3600 seconds. The surface was then regenerated with two 60-seconds injection of 10 mM Glycine-HCl, pH 1.7 (made from Glycine pH 1.5 (Biacore, Cat. No. BR-1003-54) and pH 2.0 (Biacore, Cat. No. BR-1003-55)) at a flow rate of […].
Kinetic parameters were determined using the kinetic function of the BIAevaluation software (Biacore) with double reference subtraction. Kinetic parameters for each antibody, kₐ (association rate constant), kd (dissociation rate constant) and KD (equilibrium dissociation constant) were determined.

For experiment [8], the target named is T3, human ErbB3. The experiment can be described thus: cell-based or functional assay. This is another data set of the same source.
For experiment [9], the target named is T1, recombinant human ErbB3/Fc fusion …. In words: ECL (MSD): NRG1-β1 (0.25 µg/ml) binding to plate-coated rhErbB3/Fc after antibody dilutions; the antibody enhances the NRG1-β1 signal. The protocol: MA2400 96-well standard binding plates (Meso Scale Discovery, Cat. No. L15XA-6) were coated with 50 μl of 0.5 μg/mL rhErbB3/Fc (R&D systems, Cat. No. 348-RB) in PBS (Invitrogen, Cat. No. 14040-133) for overnight at 4° C. with no agitation. The plates then were washed 3 times with PBS+0.1% Tween20 (Sigma P5927) and blocked with 200 μl of PBS containing 5% BSA (Sera Care Life Sciences, Cat. No. AP-4510-80) for 1.5 hour at room temperature. After washing the plates 3 times with PBS, 25 μl of the antibody dilutions were added to the plates for another hour at room temperature with agitation. […] The plates then were washed 3 times with PBS, and 150 μl of 1× read buffer (Meso Scale Discovery, Cat. No. R92TC-1) was added to each well before the plates were analyzed on a Sector® Imager 2400 (Meso Scale Discovery) instrument.

Residue numbers refer to the chain shown, from its start. Numbers in names are those of the source. Where two headings read alike, the source gives them in different places.

B1: U1-53 (antibody, V domains shown)
VH: EVQLVESGGGLVQPGGSLRLSCAASGFTFSIYSMNWVRQAPGKGLEWVSYISSSSSTIYYADSVKGRFTISRDNAKNSLYLQMNSLRDEDTAVYYCARDRGDFDAFDIWGQGTMVTVSS
VL: DIQMTQSPSSLSASVGDRVTITCQASQDITNYLNWYQQKPGKAPKLLIYDASNLETGVPSRFSGSGSGTDFTFTISSLQPEDIATYNCQQCENFPITFGQGTRLEIK
The term IC50 denotes the concentration at which inhibition is half-maximal. B1: in experiment [1], the IC50 turned out to be 0.113 nM. For the same molecule, the “IC50 (read off the curve)” value in experiment [2] was around 0.1 nM.

B2: Sh24C05-31 N62S IgG1 (antibody)
heavy: not shown
light: DIQMTQSPSSLSASVGDRVTITCRASQEISGYLSWYQQKPGKAPKRLIYAASTLDSGVPSRFSGSGSGTEFTLTISSLQPEDFATYYCLQYDSYPYTFGQGTKLEIKRTVAAPSVFIFPPSDEQLKSGTASVVCLLNNFYPREAKVQWKVDNALQSGNSQESVTEQDSKDSTYSLSSTLTLSKADYEKHKVYACEVTHQGLSSPVTKSFNRGEC
notes: Humanized, human IgG1/kappa
In general, Kd refers to the concentration at which binding is half-saturated. Usually koff stands for the rate constant with which the complex falls apart. Usually kon stands for the second-order rate constant of association. For the molecule B2, in experiment [3], the Kd is 0.076 nM, the koff was 0.00027 s⁻¹ and the kon was 3.5e+06 M⁻¹ s⁻¹. In addition, the IC50 in experiment [1] was determined as 0.124 nM. For the same molecule, the “inhibition of phosphorylation of ErbB3 in exponentially growing SKBR-3 cells (ELISA)” value (shortened to “inhibition of phosphorylation of ErbB3”) with human ErbB3 [4] is at least 50%. For the same molecule, the “IC50 (read off the curve)” value in experiment [5] is around 0.1 nM. Also, in experiment [6], the Kd turned out to be 0.076 nM, the koff stood at 0.00027 s⁻¹ and the kon is 3.5e+06 M⁻¹ s⁻¹.

B3: Sh24C05-25 N62S IgG2 (antibody)
heavy: QVQLVESGGGLVKPGGSLRLSCAASGFTFSDYAMSWIRQAPGKGLEWVSTISDGGTYTYYPDSVKGRFTISRDNAKNSLYLQMNSLRAEDTAVYYCAREWGDYDGFDYWGQGTLVTVSSASTKGPSVFPLAPCSRSTSESTAALGCLVKDYFPEPVTVSWNSGALTSGVHTFPAVLQSSGLYSLSSVVTVPSSNFGTQTYTCNVDHKPSNTKVDKTVERKCCVECPPCPAPPVAGPSVFLFPPKPKDTLMISRTPEVTCVVVDVSHEDPEVQFNWYVDGVEVHNAKTKPREEQFNSTFRVVSVLTVVHQDWLNGKEYKCKVSNKGLPAPIEKTISKTKGQPREPQVYTLPPSREEMTKNQVSLTCLVKGFYPSDIAVEWESNGQPENNYKTTPPMLDSDGSFFLYSKLTVDKSRWQQGNVFSCSVMHEALHNHYTQKSLSLSPGK
light: B2 light with Y36F, R46S, E70D
notes: Humanized, human IgG2/kappa
With B3, in experiment [3], the dissociation constant (Kd) amounted to 0.12 nM, the koff was found to be 0.00034 s⁻¹ and the on-rate (kon) came out at 2.7e+06 M⁻¹ s⁻¹. The IC50 in [1] came out at 0.112 nM. For the same molecule, the “inhibition of phosphorylation of ErbB3” value with human ErbB3 [4] is at least 50%. For the same molecule, the “IC50 (read off the curve)” value in [5] was around 0.1 nM.

B4: Sh24C05-31 N62S IgG2 (antibody)
heavy: B3 heavy
light: B2 light
notes: Humanized, human IgG2/kappa
As for B4, in [3], the Kd stood at 0.074 nM, the off-rate (koff) came out at 0.00024 s⁻¹ and the association rate constant (kon) came out at 3.2e+06 M⁻¹ s⁻¹. In experiment [1], the IC50 turned out to be 0.086 nM. The “inhibition of phosphorylation of ErbB3” value with human ErbB3 [4] is at least 50%. Further, the “IC50 (read off the curve)” value in experiment [5] is around 0.1 nM.

B5: 09D03 (antibody, mouse IgG2b, kappa, V domains shown)
VH: QVTLKESGPGILRPSQTLSLTCSFSGFSLSTFGLSVGWIRQPSGKGLEWLAHIWWDDDKYYNPALKSRLTISKDTSKNQVFLKIANVDTADTATYYCARIGADALPFDYWGQGTTLTVSS
VL: DIVLTQTAPSVPVTPGESVSISCRSSKSLLHSNGNTYLYWFLQRPGQSPQLLIYRMSNLASGVPDRFSGSGSGTAFTLRISRVEAEDVGVYYCMQHLEYPFTFGSGTKLEIKR
notes: Murine IgG2b/kappa, from hybridoma; also called anti-hErbB3 monoclonal antibody 09D03
The EC50 (read off the curve) is the concentration giving half of the maximal effect. For B5, in [7], the Kd came out at 0.08 nM, the koff was 2e-05 s⁻¹ and the kon turned out to be 270000 M⁻¹ s⁻¹. Further, the “IC50, NRG1-β1 dependent proliferation of MCF7 cells (MTT)” value in the experiment with human ErbB3 [8] was found to be 2.28 nM. Further, the “EC50 (read off the curve)” value in experiment [9] is around 1 nM. In the experiment with human ErbB3 [4], the “inhibition of NRG1-β1 induced phosphorylation of Akt in MCF7 and DU145 cells (ELISA)” value was at least 80%; the “inhibition of NRG1-β1 induced phosphorylation of ErbB3 in SKBR-3 cells (ELISA, 5 µg/ml antibody)” value is at least 50%.
